From US20260139057A1 (University of California, published 2026) come the findings set out here.

The Kd is the constant that tells how readily two partners part at equilibrium.

For test [1], the target named is T1, recombinant human integrin αvβ8 ectodomain (human, UniProt P06756 31-992; P26012 43-681). Briefly: cell-based or functional assay.
Test [2] concerns the target T1, recombinant human integrin αvβ8 …. As to the kind of experiment: cell-based or functional assay. This is another data set of the same source.
The target is the same in test [3]. As to the kind of experiment: cell-based or functional assay. The source holds these as a separate data set.
Test [4] has the same target. Briefly: cell-based or functional assay. This is another data set of the same source.
The target in test [5] is integrin αvβ6 ectodomain (immobilized) (human, UniProt P06756 31-992; P18564 22-709). Briefly: cell-based or functional assay.
The target of test [6] is T2, integrin αvβ1 ectodomain (immobilized) (Homo sapiens (Human), UniProt P06756 31-992; P05556 21-728).
T2 construct: R&D Systems; copies: 1 + 1
As to the kind of experiment: binding to immobilized integrin ectodomains blocked with BSA.

The target of test [7] is T3, integrin αvβ5 ectodomain (immobilized) (Homo sapiens (Human), UniProt P06756 31-992; P18084 24-719).
T3 construct: R&D Systems; copies: 1 + 1
Described as above.

The target of test [8] is T1, recombinant human integrin αvβ8 …. Briefly: KinExA; antibody format and antigen form not stated.
Test [9] deals with T4, integrin αvβ3 on HEK 293 cells stably expressing αvβ3 (Homo sapiens (Human), UniProt P06756 31-1048; P05106 27-788).
T4 construct: also called αvβ3 expressing 293 cells
As to the kind of experiment: flow cytometry on HEK 293 cells stably expressing αvβ3. From the text: A) Binding of anti-β3 (AP3) relative to F12 IgG4, H4C8 RGD1 IgG4,H4C8 RGD3 IgG4, H3C8 RGD3 with VL Fr4 V108/L109 (mouse) IgG4, H4C8 RGD3 IgG4, H3C8 RGD3 VL Fr4 K108/V109 (human) IgG4, H4C8 RGD1 VH Fr3 E72, H4C8 RGD3 VH Fr3 E72 IgG4. HEK 293 cells stably expressing αvβ3 were stained and the percentage of relative binding to the mean fluorescence intensity of AP3 is shown, B) Expi293 cells transiently expressing αvβ6 were stained and the percentage of relative binding to the mean fluorescence intensity of 3G9 is shown, C) HEK 293 cells stably expressing αvβ8 were stained and the percentage of relative binding to the mean fluorescence intensity of HuF12 is shown. All primary antibodies were used at 2.5 ug/ml. […] Binding or 3G9 is shown and percent binding of antibodies relative to 3G9 binding to αvβ6 is shown. Dotted line indicate binding observed with each positive control antibody,
RGD ligands bind promiscuously to a number of integrins. A highly desirable quality in RGD-mimetics is to retain specificity for some but not all integrins. One highly desirable property would be a dual inhibitor to both the αvβ8- and αvβ6-integrins, without cross-reactivity to other integrins. This property would facilitate specific targeting of integrin-mediated TGF-β activation without the liability of side-effects mediated by broadly blocking other integrins. We first measured binding to αvβ3 expressing 293 cells. Binding of anti-β3 (AP3) relative to F12 IgG4, H4C8 RGD1 IgG4,H4C8 RGD3 IgG4, H3C8 RGD3 with VL Fr4 V108/L109 (mouse) IgG4, H4C8 RGD3 IgG4, H3C8 RGD3 VI Fr4 K108/V109 (human) IgG4, H4C8 RGD1 Vh Fr3 E72, H4C8 RGD3 Vh Fr3 E72 IgG4. […] Expi293 cells transiently expressing αvβ6 were stained and the percentage of relative binding to the mean fluorescence intensity of anti-β6 (3G9) determined.

Test [10] has as its target T2, integrin αvβ1 ectodomain (immobilized). As to the kind of experiment: binding to immobilized ectodomains.
Test [11] addresses T3, integrin αvβ5 ectodomain (immobilized). Briefly: binding to immobilized ectodomains.

T2 sequence (P06756 31-992 limits assumed, chain 1 of 2): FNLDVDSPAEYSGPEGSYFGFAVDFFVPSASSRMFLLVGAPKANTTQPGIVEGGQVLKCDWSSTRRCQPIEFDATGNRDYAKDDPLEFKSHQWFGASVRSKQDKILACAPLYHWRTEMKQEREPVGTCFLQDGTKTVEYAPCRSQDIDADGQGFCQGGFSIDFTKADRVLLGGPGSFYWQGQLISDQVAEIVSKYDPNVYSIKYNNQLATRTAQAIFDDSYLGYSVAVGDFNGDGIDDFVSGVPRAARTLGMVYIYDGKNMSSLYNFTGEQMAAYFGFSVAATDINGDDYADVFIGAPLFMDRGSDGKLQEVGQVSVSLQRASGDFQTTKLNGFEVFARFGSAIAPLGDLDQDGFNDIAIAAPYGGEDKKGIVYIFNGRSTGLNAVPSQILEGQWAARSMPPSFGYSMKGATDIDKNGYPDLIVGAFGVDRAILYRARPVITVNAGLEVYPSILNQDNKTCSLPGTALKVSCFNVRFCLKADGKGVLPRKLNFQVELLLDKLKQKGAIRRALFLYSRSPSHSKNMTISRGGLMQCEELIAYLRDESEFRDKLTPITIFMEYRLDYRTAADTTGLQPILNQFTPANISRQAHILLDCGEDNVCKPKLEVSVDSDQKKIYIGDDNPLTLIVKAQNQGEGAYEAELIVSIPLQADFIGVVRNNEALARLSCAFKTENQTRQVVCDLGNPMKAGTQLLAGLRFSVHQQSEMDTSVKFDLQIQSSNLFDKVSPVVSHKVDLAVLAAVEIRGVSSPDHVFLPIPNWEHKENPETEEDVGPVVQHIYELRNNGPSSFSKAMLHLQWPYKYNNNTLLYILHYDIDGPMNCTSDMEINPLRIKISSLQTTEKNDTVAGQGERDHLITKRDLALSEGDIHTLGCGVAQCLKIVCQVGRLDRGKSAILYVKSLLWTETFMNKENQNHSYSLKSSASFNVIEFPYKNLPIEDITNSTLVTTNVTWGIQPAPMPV
T2 sequence (P05556 21-728 limits assumed, chain 2 of 2): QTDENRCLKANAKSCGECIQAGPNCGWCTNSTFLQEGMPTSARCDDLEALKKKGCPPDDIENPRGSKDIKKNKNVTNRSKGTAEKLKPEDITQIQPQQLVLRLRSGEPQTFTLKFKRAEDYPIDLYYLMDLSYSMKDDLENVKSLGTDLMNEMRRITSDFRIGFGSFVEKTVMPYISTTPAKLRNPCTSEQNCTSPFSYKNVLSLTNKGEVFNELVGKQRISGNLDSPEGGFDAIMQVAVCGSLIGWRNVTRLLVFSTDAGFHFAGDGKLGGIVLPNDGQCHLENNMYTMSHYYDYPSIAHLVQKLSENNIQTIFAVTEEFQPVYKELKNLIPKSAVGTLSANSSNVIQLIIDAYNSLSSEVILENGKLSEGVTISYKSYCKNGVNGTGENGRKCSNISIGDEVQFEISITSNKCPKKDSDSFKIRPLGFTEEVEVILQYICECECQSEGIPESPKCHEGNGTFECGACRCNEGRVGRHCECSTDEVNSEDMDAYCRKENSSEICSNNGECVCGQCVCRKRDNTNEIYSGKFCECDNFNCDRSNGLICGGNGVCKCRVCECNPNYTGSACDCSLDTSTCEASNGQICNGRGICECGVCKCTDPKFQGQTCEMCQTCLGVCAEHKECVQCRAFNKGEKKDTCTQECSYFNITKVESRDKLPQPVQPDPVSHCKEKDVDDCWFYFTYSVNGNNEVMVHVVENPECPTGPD
Sequence of integrin αvβ6 ectodomain (immobilized) (P06756 31-992, chain 1 of 2): as the sequence (P06756 31-992 limits assumed, chain 1 of 2) above
Sequence of integrin αvβ6 ectodomain (immobilized) (P18564 22-709, chain 2 of 2): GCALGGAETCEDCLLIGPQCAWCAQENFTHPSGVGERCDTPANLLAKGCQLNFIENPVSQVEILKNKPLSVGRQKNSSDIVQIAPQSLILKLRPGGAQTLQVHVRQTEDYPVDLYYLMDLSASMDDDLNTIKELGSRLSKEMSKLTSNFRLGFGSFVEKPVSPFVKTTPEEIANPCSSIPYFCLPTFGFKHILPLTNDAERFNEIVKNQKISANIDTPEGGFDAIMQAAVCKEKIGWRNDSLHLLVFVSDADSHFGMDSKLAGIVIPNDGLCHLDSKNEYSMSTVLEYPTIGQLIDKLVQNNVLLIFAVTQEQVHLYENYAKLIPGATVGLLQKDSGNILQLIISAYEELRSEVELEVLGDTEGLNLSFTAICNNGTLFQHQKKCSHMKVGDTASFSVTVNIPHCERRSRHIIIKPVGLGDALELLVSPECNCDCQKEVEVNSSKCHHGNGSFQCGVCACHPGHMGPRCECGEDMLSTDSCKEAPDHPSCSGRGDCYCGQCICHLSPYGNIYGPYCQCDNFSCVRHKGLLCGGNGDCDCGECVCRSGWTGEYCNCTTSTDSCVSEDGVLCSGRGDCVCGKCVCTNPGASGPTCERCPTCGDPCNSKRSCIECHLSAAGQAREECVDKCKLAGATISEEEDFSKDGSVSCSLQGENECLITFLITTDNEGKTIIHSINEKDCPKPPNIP
T1 sequence (P06756 31-992 limits assumed, chain 1 of 2): as the sequence (P06756 31-992 limits assumed, chain 1 of 2) above
T1 sequence (P26012 43-681 limits assumed, chain 2 of 2): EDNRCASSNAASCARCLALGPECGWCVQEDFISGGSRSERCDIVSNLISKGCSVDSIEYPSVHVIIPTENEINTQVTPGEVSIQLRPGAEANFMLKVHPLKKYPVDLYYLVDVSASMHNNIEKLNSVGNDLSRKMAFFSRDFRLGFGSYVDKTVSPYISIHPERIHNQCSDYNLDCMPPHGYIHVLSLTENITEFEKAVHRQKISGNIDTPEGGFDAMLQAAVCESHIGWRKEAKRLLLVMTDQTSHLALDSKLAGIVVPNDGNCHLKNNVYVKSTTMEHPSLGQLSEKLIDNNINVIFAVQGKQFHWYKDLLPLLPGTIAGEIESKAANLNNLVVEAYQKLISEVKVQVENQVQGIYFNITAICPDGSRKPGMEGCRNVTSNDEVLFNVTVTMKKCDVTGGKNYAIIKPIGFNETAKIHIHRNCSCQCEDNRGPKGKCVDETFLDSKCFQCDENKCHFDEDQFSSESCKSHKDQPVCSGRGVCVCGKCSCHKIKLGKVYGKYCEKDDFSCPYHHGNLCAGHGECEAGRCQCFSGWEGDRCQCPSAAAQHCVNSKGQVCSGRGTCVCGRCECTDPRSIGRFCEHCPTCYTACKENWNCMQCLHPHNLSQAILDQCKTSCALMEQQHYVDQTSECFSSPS
T3 sequence (P06756 31-992 limits assumed, chain 1 of 2): as the sequence (P06756 31-992 limits assumed, chain 1 of 2) above
T3 sequence (P18084 24-719 limits assumed, chain 2 of 2): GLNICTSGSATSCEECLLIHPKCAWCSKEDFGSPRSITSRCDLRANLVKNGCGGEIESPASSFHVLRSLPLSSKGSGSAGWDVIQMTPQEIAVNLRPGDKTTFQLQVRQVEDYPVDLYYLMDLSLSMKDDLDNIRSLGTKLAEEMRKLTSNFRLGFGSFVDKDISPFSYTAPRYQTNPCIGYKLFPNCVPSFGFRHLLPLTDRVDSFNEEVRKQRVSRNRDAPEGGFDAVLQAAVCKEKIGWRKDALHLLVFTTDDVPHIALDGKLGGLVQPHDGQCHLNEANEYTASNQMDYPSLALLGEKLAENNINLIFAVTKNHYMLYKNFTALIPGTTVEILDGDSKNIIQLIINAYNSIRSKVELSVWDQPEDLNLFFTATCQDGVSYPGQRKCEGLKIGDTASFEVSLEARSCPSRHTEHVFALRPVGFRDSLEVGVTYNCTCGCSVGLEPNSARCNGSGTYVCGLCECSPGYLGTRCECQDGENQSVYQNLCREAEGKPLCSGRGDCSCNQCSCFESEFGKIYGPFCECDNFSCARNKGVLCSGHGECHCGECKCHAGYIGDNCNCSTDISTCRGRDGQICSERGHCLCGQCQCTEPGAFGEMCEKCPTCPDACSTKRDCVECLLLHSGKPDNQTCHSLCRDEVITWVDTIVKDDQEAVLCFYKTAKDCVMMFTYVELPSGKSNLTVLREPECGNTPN

B1: HuC6D4 IgG2a (antibody, V domains shown)
VH: QIQLVQSGAEVKKPGASVKISCKASGYTFTDYSMHWVRQAPGQGLEWVARINTETGEPTFADDFRGRFTVTLDTSTSTAYLEIRSLRSDDTAVYFCAIFYYGRDTWGQGTTLTVSS
VL: EIVMTQSPATLSVSPGERVTMSCKSSQSLLNSRSRKNYLAWYQQKPGQAPRLLIYWASTRESGVPARFSGSGSGTEFTLTISSVQSEDFAVYYCKQSYNLLSFGQGTVLEIKR
Take B1: the “EC50 of inhibition of αvβ8-mediated TGF-β activation” value in test [1] turned out to be 230 nM. In test [2], the “IC50 of the inhibition of TGF-β activation (TMLC GARP/TGF-β1 reporter cells on αvβ8-coated wells)” value is 3.1 µg/mL. For the same molecule, in test [3], the “ED50 of the inhibition of αvβ8-mediated TGF-β activation (immobilized αvβ8, TMLC GARP/L-TGF-β reporter cells)” value stood at 0.23 µg/mL.

B2: H4C8m (H4C8 with non-humanized, murine VL Fr4), human IgG4 (antibody, V domains shown)
VH: QVQLVQSGAEVKKPGASVKVSCKVSGYTLTRQSMHWVRQAPGKGLEWMGRINTETGEPTYAQKFQGRVTMTQDTSTDTAYMELSSLRSEDTAVYFCAIFYYGRDTWGQGTTVTVSS
VL: EIVMTQSPATLSVSPGERVTLSCRSSQSLLHSRSRKNYLAWYQQKPGQAPRLLIYWASTRETGVPARFSGSGSGTEFTLTISSLQSEDFAVYYCKQSYNLLSFGQGTVLEIKR
Turning to B2, in test [1], the “EC50 of inhibition of αvβ8-mediated TGF-β activation” value was 300 nM. Besides, the “ED50 of the inhibition of αvβ8-mediated TGF-β activation (immobilized αvβ8, TMLC GARP/L-TGF-β reporter cells)” value in test [3] came to 0.03 µg/mL.

B3: H3.C12, human IgG4 (antibody, V domains shown)
VH: QVQLVQSGAEVKKPGASVKVSCKVSGYTLTEQSMHWVRQAPGKGLEWMGRINTETGEPTYAQKFQGRVTMTQDTSTDTAYMELSSLRSEDTAVYFCAIFYYGRDTWGQGTTVTVSS
VL: EIVMTQSPATLSVSPGERVTMSCRSSQSLLHSRTRKNYLAWYQQKPGQAPRLLIYWASTRETGVPARFSGSGSGTEFTLTISSLQSEDFAVYYCKQSYNLLSFGQGTVLEIKR
As to B3, the “EC50 of inhibition of αvβ8-mediated TGF-β activation” value in [1] came out at 250 nM. In [3], the “ED50 of the inhibition of αvβ8-mediated TGF-β activation (immobilized αvβ8, TMLC GARP/L-TGF-β reporter cells)” value came out at 0.25 µg/mL.

B4: huF12 VH with huC6D4 VL, murine IgG2a (antibody, V domains shown)
VH: QIQLVQSGAEVKKPGASVKISCKASGYTFTKYSMHWVRQAPGQGLEWVARINTETGEPTFADDFRGRFTVTLDTSTSTAYLEIRSLRSDDTAVYFCAIFYYGRDTWGQGTTLTVSS
VL: EIVMTQSPATLSVSPGERVTMSCKSSQSLLNSRSRKNYLAWYQQKPGQAPRLLIYWASTRESGVPARFSGSGSGTEFTLTISSVQSEDFAVYYCKQSYNLLSFGQGTVLEIKR
As to B4, the “IC50 of the inhibition of TGF-β activation (TMLC GARP/TGF-β1 reporter cells on αvβ8-coated wells)” value in test [2] came to 0.337 µg/mL.

B5: HuC6D4 RGD3, mouse IgG2a (antibody, V domains shown)
VH: QIQLVQSGAEVKKPGASVKISCKASGYTFTDYSMHWVRQAPGQGLEWVARINTETGEPTFADDFRGRFTVTLDTSTSTAYLEIRSLRSDDTAVYFCAIFYYGRDTWGQGTTLTVSS
VL: EIVMTQSPATLSVSPGERVTMSCKSSQSLLGRGDLGRLKKNALAWYQQKPGQAPRLLIYWASTRESGVPARFSGSGSGTEFTLTISSVQSEDFAVYYCKQSYNLLSFGQGTVLEIKR
notes: Mouse IgG2a
B5: in test [4], the “ED50 of the inhibition of αvβ8-mediated TGF-β activation (immobilized human αvβ8, TMLC GARP/L-TGF-β reporter cells)” value was 3.3 µg/mL. The “ED50 of the inhibition of αvβ6-mediated TGF-β activation (immobilized human αvβ6, TMLC GARP/L-TGF-β reporter cells)” value in test [5] came to 1.54 µg/mL. Also, the binding result in test [6] and in [7] was “no binding” in each case.

B6: huC6D4 VH with huF12 VL, murine IgG2a (antibody, V domains shown)
VH: QIQLVQSGAEVKKPGASVKISCKASGYTFTDYSMHWVRQAPGQGLEWVARINTETGEPTFADDFRGRFTVTLDTSTSTAYLEIRSLRSDDTAVYFCAIFYYGRDTWGQGTTLTVSS
VL: EIVMTQSPATLSVSPGERVTMSCKSSQSLLHSRSRKNYLAWYQQKPGQAPRLLIYWASTRESGVPARFSGSGSGTEFTLTISSVQSEDFAVYYCKQSYNLLSFGQGTVLEIKR
For the molecule B6, the “IC50 of the inhibition of TGF-β activation (TMLC GARP/TGF-β1 reporter cells on αvβ8-coated wells)” value in test [2] was 1.15 µg/mL.

B7: HuC6D4 (format not stated) (antibody, V domains shown)
VH: QIQLVQSGAEVKKPGASVKISCKASGYTFTDYSMHWVRQAPGQGLEWVARINTETGEPTFADDFRGRFTVTLDTSTSTAYLEIRSLRSDDTAVYFCAIFYYGRDTWGQGTTLTVSS
VL: EIVMTQSPATLSVSPGERVTMSCKSSQSLLNSRSRKNYLAWYQQKPGQAPRLLIYWASTRESGVPARFSGSGSGTEFTLTISSVQSEDFAVYYCKQSYNLLSFGQGTVLEIKR
B7: in test [8], the Kd stood at 0.0821 nM.

B8: H4C8 RGD3, human IgG4 (antibody, V domains shown)
VH: QVQLVQSGAEVKKPGASVKVSCKVSGYTLTRQSMHWVRQAPGKGLEWMGRINTETGEPTYAQKFQGRVTMTQDTSTDTAYMELSSLRSEDTAVYFCAIFYYGRDTWGQGTTVTVSS
VL: EIVMTQSPATLSVSPGERVTLSCKSSQSLLGRGDLGRLKKNALAWYQQKPGQAPRLLIYWASTRETGVPARFSGSGSGTEFTLTISSLQSEDFAVYYCKQSYNLLSFGQGTKVEIKR
notes: also called H4C8 RGD3 IgG4
Turning to B8, in [4], the “ED50 of the inhibition of αvβ8-mediated TGF-β activation (immobilized human αvβ8, TMLC GARP/L-TGF-β reporter cells)” value was 0.02 µg/mL. Besides, the “ED50 of the inhibition of αvβ6-mediated TGF-β activation (immobilized human αvβ6, TMLC GARP/L-TGF-β reporter cells)” value in test [5] stood at 0.03 µg/mL. The values for the binding result in test [9], in [6] and in test [7] were “no binding (tested: 2.5 µg/ml)”, “no binding” and “no binding”, respectively.

B9: H3C8 RGD3, human IgG4 (VL Fr4 K108/V109, human) (antibody, V domains shown)
VH: QVQLVQSGAEVKKPGASVKVSCKVSGYTLTEQSMHWVRQAPGKGLEWMGRINTETGEPTYAQKFQGRVTMTQDTSTDTAYMELSSLRSEDTAVYFCAIFYYGRDTWGQGTTVTVSS
VL: EIVMTQSPATLSVSPGERVTLSCKSSQSLLGRGDLGRLKKNALAWYQQKPGQAPRLLIYWASTRETGVPARFSGSGSGTEFTLTISSLQSEDFAVYYCKQSYNLLSFGQGTKVEIKR
notes: also called H3C8 RGD3 VL Fr4 K108/V109 (human) IgG4
Regarding B9, the results for the binding result in test [10], in test [11] and in [9] were “no binding”, “no binding” and “no binding (tested: 2.5 µg/ml)”, respectively. The “ED50 of the inhibition of αvβ8-mediated TGF-β activation (immobilized human αvβ8, TMLC GARP/L-TGF-β reporter cells)” value in test [4] was 0.84 µg/mL. In addition, the “ED50 of the inhibition of αvβ6-mediated TGF-β activation (immobilized human αvβ6, TMLC GARP/L-TGF-β reporter cells)” value in test [5] was determined as 0.07 µg/mL.

B10: H4C8 RGD1, human IgG4 (antibody, V domains shown)
VH: QVQLVQSGAEVKKPGASVKVSCKVSGYTLTRQSMHWVRQAPGKGLEWMGRINTETGEPTYAQKFQGRVTMTQDTSTDTAYMELSSLRSEDTAVYFCAIFYYGRDTWGQGTTVTVSS
VL: EIVMTQSPATLSVSPGERVTLSCKSSQSLLRRGDLATIHGNALAWYQQKPGQAPRLLIYWASTRETGVPARFSGSGSGTEFTLTISSLQSEDFAVYYCKQSYNLLSFGQGTKVEIKR
notes: also called H4C8 RGD1 IgG4
As to B10, the “ED50 of the inhibition of αvβ8-mediated TGF-β activation (immobilized human αvβ8, TMLC GARP/L-TGF-β reporter cells)” value in test [4] came to 0.07 µg/mL. In addition, the “ED50 of the inhibition of αvβ6-mediated TGF-β activation (immobilized human αvβ6, TMLC GARP/L-TGF-β reporter cells)” value in [5] is 0.04 µg/mL. Besides, the binding result is listed as “no binding (tested: 2.5 µg/ml)” in test [9], “no binding” in test [6] and “no binding” in test [7].
